In patent EP1246846B1 (ZymoGenetics, Inc., dated 2008):

Target: T1, IL-20RA/IL-20RB heterodimeric receptor (human, UniProt Q9UHF4 30-553; Q6UXL0 30-311)
T1 construct: Both subunits were co-expressed on transfected COS, BHK or BaF3 cells, or were endogenous on HaCaT keratinocytes; also called IL-20RB-IL-20RA heterodimer; IL-20 receptor
T1 sequence 1: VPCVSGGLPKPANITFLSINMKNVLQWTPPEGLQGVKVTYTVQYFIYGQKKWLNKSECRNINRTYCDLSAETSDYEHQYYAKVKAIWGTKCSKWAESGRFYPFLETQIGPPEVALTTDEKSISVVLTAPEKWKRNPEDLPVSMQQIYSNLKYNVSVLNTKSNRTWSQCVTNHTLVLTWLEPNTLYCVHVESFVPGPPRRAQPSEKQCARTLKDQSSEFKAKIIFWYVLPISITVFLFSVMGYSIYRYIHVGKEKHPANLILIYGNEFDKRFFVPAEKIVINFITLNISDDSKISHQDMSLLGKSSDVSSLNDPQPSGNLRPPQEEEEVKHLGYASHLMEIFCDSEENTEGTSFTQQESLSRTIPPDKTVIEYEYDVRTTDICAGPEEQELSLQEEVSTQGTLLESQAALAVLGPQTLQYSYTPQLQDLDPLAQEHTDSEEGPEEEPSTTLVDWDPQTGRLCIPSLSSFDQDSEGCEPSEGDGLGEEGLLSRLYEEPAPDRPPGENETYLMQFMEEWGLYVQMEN
T1 sequence 2: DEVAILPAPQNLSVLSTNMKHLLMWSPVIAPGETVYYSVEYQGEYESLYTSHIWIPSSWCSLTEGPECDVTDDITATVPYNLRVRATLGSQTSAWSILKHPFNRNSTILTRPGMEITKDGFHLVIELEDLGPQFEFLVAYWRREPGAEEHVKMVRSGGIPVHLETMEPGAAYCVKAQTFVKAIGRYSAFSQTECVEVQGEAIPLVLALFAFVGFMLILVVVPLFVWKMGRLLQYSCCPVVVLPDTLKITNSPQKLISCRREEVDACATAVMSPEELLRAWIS
Assay: 125I-labeled IL-20 binding to BHK cells stably transfected with IL-20RA and IL-20RB

Kd: ~1.5 nM
B1: IL-20 (Interleukin-20) (ligand, UniProt Q9NYY1 25-176, looked up)
chain: LKTLNLGSCVIATNLQEIRNGFSEIRGSVQAKDGNIDIRILRRTESLQDTKPANRCCLLRHLLRLYLDRVFKNYQTPDHYTLRKISSLANSFLTIKKDLRLCHAHMTCHCGEEAMKKYSQILSHFEKLEPQAAVVKALGELDILLQWMEETE
modifications: biotin-labeled in Example 3; 125I-labeled in Example 7; unlabeled in the functional assays
notes: also called Zcyto10; biotin-labeled IL-20 protein
